According to US20260069707A1, “COMBINATION THERAPY WITH ANTIBODY-DRUG CONJUGATES AND HYALURONIDASES” (HALOZYME, INC., priority 2024, published 2026):

How the values were obtained:
[1] = Post-injection bleb volume, area, height - caliper measurement; type: in vivo, Yucatan miniature pig (Sus scrofa domestica)
Method: (§1) The needle was inserted vertically into the marked injection site and the HVAI held in place by hand. Target needle insertion depth was ˜10 mm. Injections were timed using a stopwatch. Upon completion of the injection the needle was removed and the HVAI device discarded. Test solution back-leakage was then absorbed to a tared eye-spear for 30 seconds on the injection site and the weight of the eye spear was measured using an analytical balance. The margins of the injection site bleb were marked with a permanent marker and measured for length, width, and height using a digital caliper and recorded then photographed with the standard and 3D cameras. Caliper measurements and photographs were taken immediately post-injection. Local injection sites were qualitatively assessed and graded daily for erythema severity, swelling size appearance, and firmness, using a scoring system described in Table 4 Table 5, and Table 6, respectively.
Assessment of Local Swelling Volume and Area Using Caliper Measurement and 3D Imaging. Volume and area of post-injection swelling were measured using both caliper measurement and 3D camera image analysis. For caliper measurements a digital caliper was utilized to measure length, width and height of the bleb that formed post-injection. The length and width are defined as the edge to edge measurements of the bleb (i.e., diameter) along their longest axes. These values were manually recorded, and the volume determined using the formula for half of an ellipsoid Vol=(⅔)*π*A*B*C where A=Length/2, B=Width/2 and C=Height.
Assessment of Post-Injection Bleb Volume, Area and Height (Caliper Measurements). The local injection site swelling (bleb) was marked and measured using a digital caliper.

[2] = Post-injection bleb volume, area, height - 3D imaging; type: in vivo, Yucatan miniature pig (Sus scrofa domestica); conditions: minipig, 10 mL SC by HVAI, T0; n=3 alone, n=2 with rHuPH20
Method: 3D imaging was applied as a longitudinal methodology to measure post-injection swelling. By obtaining high definition pre- and post-injection 3D images the distances between two registered surfaces can be determined. The camera captures images using a factory calibrated bifocal imaging system to measure distance between surfaces. Surface registration was performed using a multipoint method that utilized common landmarks between the pre-injection image and the post-injection image. Using the proprietary software, the volume, area and height of the post-injection swelling was calculated for each injection (Canfield Biosciences, Inc.).
Assessment of Post-Injection Bleb Shape, Volume, Area and Height (3D Imaging). Pre- and post-injection photographs were taken using a 3D imaging system (Canfield Scientific). This technology permits point-to-point alignment of these two images through multipoint surface registration. The distance between any two points is then represented using a colorimetric surface contour map. […] The color intensity is proportional to the amount of distance measured between images with darker blue color indicating greater distance from the pre-injection image. Out of range measurements (distances greater than 6 mm) are depicted in white. Bleb measurements of volume and height include regions out of range.
These registered pre-/post-injection images were then used to calculate the bleb volume, height, circumference, length, and width for each bleb using proprietary software (Vectra H1 software; Canfield Sciences).

[3] = Qualitative assessment of local injection sites (erythema, swelling size, induration); type: in vivo, Yucatan miniature pig (Sus scrofa domestica)
Method: as §1
Approximately, 24 hours post-dosing of the first injection, each animal was re-anesthetized, and injection sites assessed for erythema, induration and swelling, then photographed and returned to its cage.

[4] = pig, in vivo, sc
Method: Porcine serum was used as surrogate matrix to prepare calibration standards and quality controls for skin sample quantitation. Untreated blank porcine skin was provided for preparation of monitoring quality controls. The porcine skin was homogenized at an approximate ratio of 0.5 mL of buffer for every 100 mg of skin.
Porcine serum was used as surrogate matrix to prepare calibration standards and quality controls for the quantitation of skin samples. Supported liquid-liquid extraction was used for sample clean up. […] The porcine skin was homogenized at an approximate ratio of 0.5 mL of buffer for every 100 mg of skin.
Therefore, nominal time points were used for PK analyses. To estimate the serum concentration at time zero for intravenous (IV) data, a second-order polynomial regression was applied to the early serum time points (0.25, 1, and 2 hours). The intercept of the fitted polynomial curve was used as the extrapolated concentration at time zero. Skin concentration data (μg/mL) was normalized to total protein (mg/mL) per sample, resulting in values represented as μg/mg protein.
Pharmacokinetic parameters were calculated using noncompartmental methods performed in Microsoft Excel. The area under the concentration-time curve (AUC) was determined using the linear trapezoidal rule. For serum data, AUC0-7 was calculated using all available time points. For skin data, AUC1-7 was computed based on the three available time point measurements. The maximum observed concentration (Cmax) was identified directly from the dataset, and the time at which it occurred (Tmax) was recorded. All calculations were performed using Microsoft Excel.
This sample was divided vertically into two identical pieces. One skin sample was placed into a pre-weighed cryogenic tube and its weight was recorded then stored on dry ice prior to transfer to ≤−70° C. The other skin sample was processed for potential future histological assessment into OCT freezing media and frozen on dry ice.
Animals received two SC doses on their lower abdominal region.
Two cohorts were included in the follow-on study. […] Each animal had two full thickness skin biopsies taken post-mortem using a 12 mm punch. This sample was divided vertically into two identical pieces. One skin sample was placed into a pre-weighed cryogenic tube and its weight was recorded, then stored on dry ice prior to transfer to ≤−70° C. The other skin sample was processed into OCT molds for potential future histological assessment.
Tissue lysates were prepared based upon the weight of the sample at a ratio of 0.2 g/mL homogenization buffer (Tables 64 and 65). The total protein concentration of each homogenate was determined by BCA assay. The concentration of the total ADC (TADC), total antibody (TAB) and free payload (SN38) in each sample was then normalized to the protein concentration and reported in μg analyte per mg total protein.
In this initial study, six animals were used. […] Two cohorts were included in this study. Cohort 1 was euthanized 24 hours after treatment, while Cohort 2 was euthanized 48 hours after exposure to the two test solutions.

[5] = Example 4 Study #1: bleb after 20 mL SC
[6] = Example 4 Study #2: bleb after 20 mL SC
[7] = Example 5: post-injection, 10 mL SC by HVAI

Sacituzumab govitecan [Trodelvy]
Height (mm) (Mean ± SEM) [1, 5]: 10.8 ± 0.6 mm | Volume (cc) (Mean ± SEM) [1, 5]: 65.5 ± 3.6 cc | Height (mm) (Mean ± SEM) [1, 6]: 10.8 ± 0.6 mm | Volume (cc) (Mean ± SEM) [1, 6]: 65.5 ± 3.6 cc | Post-injection bleb Area, caliper (Mean ± SEM) ([1]; minipig, 10 mL SC by HVAI, Trodelvy (ADC) ± rHuPH20 2000 U/mL, T0, n=3, Examples 1, 2, 5): 25.4 ± 0.5 | Post-injection bleb Volume, caliper (Mean ± SEM) ([1]; minipig, 10 mL SC by HVAI, Trodelvy (ADC) ± rHuPH20 2000 U/mL, T0, n=3, Examples 1, 2, 5 (FIG. 3: mL)): 44.3 ± 4.0 | Post-injection bleb Height, caliper (Mean ± SEM) ([1]; minipig, 10 mL SC by HVAI, Trodelvy (ADC) ± rHuPH20 2000 U/mL, T0, n=3, Examples 1, 2, 5 (FIG. 5: mm)): 8.7 ± 0.7 | Bleb Area (cm^2), 3D imaging (Mean ± SEM) [2]: 30.5 ± 2.9 cm^2 | Bleb Height (mm), 3D imaging (Mean ± SEM) [2]: 7.6 ± 1.2 mm | Bleb Volume (mL), 3D imaging (Mean ± SEM) [2]: 8.1 ± 0.7 mL | Induration (score) [3, 7]: 3.3 ± 0.3 | Swelling Size (score) [3, 7]: 3.1 ± 0.3 | Induration at the 24, 48 or 72 hour timepoints ([3]; minipig, 10 mL SC by HVAI): No induration was detected | Swelling at the 24, 48 or 72 hour timepoints ([3]; minipig, 10 mL SC by HVAI): No swelling was detected | Swelling Score (Mean ± SEM) ([3]; minipig, 10 mL SC by HVAI, immediately post-injection, three evaluators, scale 0-4): 3.1 ± 0.3 | Induration Score (Mean ± SEM) ([3]; minipig, 10 mL SC by HVAI, immediately post-injection, two evaluators, scale 0-4): 3.3 ± 0.3 | Hardness (induration) of post-injection blebs compared with blebs of the co-mix with rHuPH20 ([3]; p<0.05, 10 mL SC): significantly firmer | AUC(1-7) of free payload in tissue homogenates of injection site, Mean [4]: 0.17 µg·days/mL | AUC(1-7) of total ADC (TADC) in tissue homogenates of injection site, Mean [4]: 18.55 µg·days/mL | AUC(1-7) of total antibody (TAB) in tissue homogenates of injection site, Mean [4]: 45.30 µg·days/mL | Cmax of free payload in tissue homogenates of injection site, Mean [4]: 180 ng/mL | Cmax of total ADC (TADC) in tissue homogenates of injection site, Mean [4]: 22860 ng/mL | Cmax of total antibody (TAB) in tissue homogenates of injection site, Mean [4]: 29410 ng/mL | TADC/Free Payload, mean AUC(1-7) [4]: 10704% | TADC/Free Payload, mean Cmax [4]: 12800% | TADC/TAB, mean AUC(1-7) [4]: 41% | TADC/TAB, mean Cmax [4]: 78% | Total ADC Result [4]: <0.100 µg/mL
